Laboratory results published in patent US20050288489A1 (published 2005).
fluorescein = fluorescein label

What was measured:
[1] = target: CaV1.2 (α1C) subunit expressed in Xenopus laevis oocytes by mRNA injection; experiment: cell-based or functional assay
[2] = target: fluorescein-labeled AID peptide, fluorescein-…-COOH; experiment: fluorescence polarization, equilibrium isotherm titration
[3] = target: fluorescein-labeled AID peptide, fluorescein-…-COOH; experiment: fluorescence polarization
[4] = target: fluorescein-labeled AID peptide, fluorescein-…-COOH; experiment: fluorescence polarization, β protein titrated onto 0.5 nM fluorescein-labeled AID peptide
[5] = target: T1, full-length VDCC β2a mutant M246 changed to alanine (rabbit, UniProt P54288-2 1-606); experiment: fluorescence polarization
T1 construct: mature

[6] = target: T2, full-length VDCC β2a mutant L392 changed to alanine (rabbit, UniProt P54288-2 1-606); experiment: fluorescence polarization
T2 construct: mature

full-length rat VDCC β3 subunit protein (recombinant, tag removed) (from UniProt P54287 1-484)
Steady-state activation, V1/2 (mV) [1]: 10 mV
Steady-state activation, k (mV) [1]: 10.6 mV

β2a core protein as injected into oocytes (P122R) (from UniProt P54288 25-422)
Current amplitude (A), I at 20 mV [1]: -0.87
Current amplitude (A), I at 30 mV [1]: -0.7
Steady-state activation, V1/2 (mV) [1]: 6.84 mV
Steady-state activation, k (mV) [1]: 8.43 mV

β2a domain I protein as injected into oocytes (P122R) (from UniProt P54288 25-146)
Current amplitude (A), I at 20 mV [1]: -0.16
Current amplitude (A), I at 30 mV [1]: -0.18
Steady-state activation, V1/2 (mV) [1]: 24 mV
Steady-state activation, k (mV) [1]: 12.2 mV

full-length VDCC β2a subunit (rabbit, recombinant, histidine tag removed by TEV protease) (from UniProt P54288 44-632)
Kd [2]: 6 to 15 nM
Kd [3]: 26 nM
Kd [4]: 16.1 nM

β3 subunit expressed in oocytes by mRNA injection
Current amplitude (A), I at 20 mV [1]: -0.56
Current amplitude (A), I at 30 mV [1]: -0.48
Steady-state activation, V1/2 (mV) [1]: 10.7 mV
Steady-state activation, k (mV) [1]: 9.08 mV

β3 core protein (from UniProt P54287 21-370)
Current amplitude (A), I at 20 mV [1]: -0.45
Current amplitude (A), I at 30 mV [1]: -0.41
Steady-state activation, V1/2 (mV) [1]: 10.7 mV
Steady-state activation, k (mV) [1]: 10.1 mV

full-length β2a protein as injected into oocytes (P122R) (from UniProt P54288 1-606)
Current amplitude (A), I at 20 mV [1]: -0.71
Current amplitude (A), I at 30 mV [1]: -0.49
Steady-state activation, V1/2 (mV) [1]: 3.68 mV
Steady-state activation, k (mV) [1]: 8.48 mV

β2a domain I + domain II prepared by proteolysis of full length protein and subsequent purification (injected) (from UniProt P54288 25-146; P54288 204-423)
Current amplitude (A), I at 20 mV [1]: -0.44
Current amplitude (A), I at 30 mV [1]: -0.34
Steady-state activation, V1/2 (mV) [1]: 3.24 mV
Steady-state activation, k (mV) [1]: 9.49 mV

VDCC β2a linkerless core (domain I plus domain II, removable linker core after TEV digestion) (from UniProt P54288 51-172; P54288 230-449)
Kd [2]: 6 to 15 nM
Kd [4]: 6.6 nM

fluorescein-GGQQLEEDLRGYNSWITQGE-OH (also called labeled peptide; WT) [fluorescein-labeled AID peptide, fluorescein-GGQQLEEDLRGYNSWITQGE-COOH]
Kd [5]: 1700 nM
Kd [6]: 340 nM
